Substitutions are numbered along the chain they refer to. Each block holds one binder with its values, some of them ahead of it.
Target: EGFR on HeLa cells (UniProt P00533 25-1210, limits assumed)
Assay: cell-based or functional assay

B1: GOMP001_bsAb_041 (bispecific antibody, human IgG1, kappa, L234A L235A)
heavy 1: QVQLVQSGAEVKKPGASVKVSCKASGYTFTSHWMHWVRKAPGQGLEWIGEFNPSNGRTNYNEEFKSKATMTVDTSTNTAYMELSSLRSEDTAVYYCASRDYDYDGRYFDYWGQGTLVTVSSASTKGPSVFPLAPSSKSTSGGTAALGCLVADYFPEPVTVSWNSGALTSGVHTFPAVLQSSGLYSLSSVVTVPSSSLGTQTYICNVNHKPSNTKVDEKVEPKSCDKTHTCPPCPAPEAAGGPSVFLFPPKPKDTLMISRTPEVTCVVVDVSHEDPEVKFNWYVDGVEVHNAKTKPREEQYNSTYRVVSVLTVLHQDWLNGKEYKCKVSNKALPAPIEKTISKAKGQPREPQVYTLPPSREEMTDNQVSLTCLVKGFYPSDIAVEWESNGQPENNYKTTPPVLMSDGSFFLASKLTVDKSRWQQGNVFSCSVMHEALHNHYTQKSLSLSPG
light 1: RIQMTQSPSSLSASVGDRVTITCSASSSVTYMYWYQDKPGKAPKLLIYDTSNLASGVPSRFSGSGSGTDYTFTISSLQPEDIATYYCQQWSSHIFTFGQGTKVEIKRTVAAPSVFIFPPSDKQLKSGTARVVCLLNNFYPREAKVQWKVDNALQSGNSQESVTEQDSKDSTYSLSSTLTLSKADYEKHKVYACEVTHQGLSSPVTKSFNRGEC
heavy 2: EVQLVESGGGLVKTGGSLRLSCVASGFSFKKAWMNWVRYAPGKGLEWVGRIKRNTDGGPADYAARVKGRFTLSRDDSKKTLYLQMNSLKTEDTAVYYCTTLDSSSWYVGYYYMDVWGRGTTVTVSSASTKGPSVFPLAPSSKSTSGGTAALGCLVKDYFPEPVTVSWNSGALTSGVHTFPAVLQSSGLYSLSSVVTVPSSSLGTQTYICNVNHKPSNTKVDKKVEPKSCDKTHTCPPCPAPEAAGGPSVFLFPPKPKDTLMISRTPEVTCVVVDVSHEDPEVKFNWYVDGVEVHNAKTKPREEQYNSTYRVVSVLTVLHQDWLNGKEYKCKVSNKALPAPIEKTISKAKGQPRRPRVYTLPPSREEMTKNQVSLVCLVKGFYPSDIAVEWESNGQPENNYKTTPPVLDSDGSFFLYSVLTVDKSRWQQGNVFSCSVMHEALHNHYTQKSLSLSPG
light 2: DIQMTQSPSSVSASVGDRVIITCRASQDINNWLAWYLRRPGDAPKLLIYAASSLQSGVPSRFSGSGSGTDFTLTIGSLQPEDFATYYCQQAHSLPITFGQGTRLEIQRTVAAPSVFIFPPSDEQLKSGTASVVCLLNNFYPREAKVQWKVDNALQSGNSQESVTEQDSKDSTYSLSSTLTLSKADYEKHKVYACEVTHQGLSSPVTKSFNRGEC
Max killing %: 78.6%
X… HeLa EC50: 0.449 nM

B3: GOMP001_bsAb_042 (bispecific antibody, human IgG1, kappa, L234A L235A)
heavy 1: EVQLVESGGGLVKTGGSLRLSCVASGFSFKKAWMNWVRKAPGKGLEWVGRIKRNTDGGPADYAAEVKGRFTLSRDDSKKTLYLQMNSLKTEDTAVYYCTTLDSSSWYVGYYYMDVWGKGTTVTVSSASTKGPSVFPLAPSSKSTSGGTAALGCLVADYFPEPVTVSWNSGALTSGVHTFPAVLQSSGLYSLSSVVTVPSSSLGTQTYICNVNHKPSNTKVDEKVEPKSCDKTHTCPPCPAPEAAGGPSVFLFPPKPKDTLMISRTPEVTCVVVDVSHEDPEVKFNWYVDGVEVHNAKTKPREEQYNSTYRVVSVLTVLHQDWLNGKEYKCKVSNKALPAPIEKTISKAKGQPREPQVYTLPPSREEMTDNQVSLTCLVKGFYPSDIAVEWESNGQPENNYKTTPPVLMSDGSFFLASKLTVDKSRWQQGNVFSCSVMHEALHNHYTQKSLSLSPG
light 1: B1 light 2 with D1R, R38D, D42K, E123K, S131R
heavy 2: QVQLVQSGAEVKKPGASVKVSCKASGYTFTSHWMHWVRYAPGQGLEWIGEFNPSNGRTNYNEKFKSKATMTVDTSTNTAYMELSSLRSEDTAVYYCASRDYDYDGRYFDYWGRGTLVTVSSASTKGPSVFPLAPSSKSTSGGTAALGCLVKDYFPEPVTVSWNSGALTSGVHTFPAVLQSSGLYSLSSVVTVPSSSLGTQTYICNVNHKPSNTKVDKKVEPKSCDKTHTCPPCPAPEAAGGPSVFLFPPKPKDTLMISRTPEVTCVVVDVSHEDPEVKFNWYVDGVEVHNAKTKPREEQYNSTYRVVSVLTVLHQDWLNGKEYKCKVSNKALPAPIEKTISKAKGQPRRPRVYTLPPSREEMTKNQVSLVCLVKGFYPSDIAVEWESNGQPENNYKTTPPVLDSDGSFFLYSVLTVDKSRWQQGNVFSCSVMHEALHNHYTQKSLSLSPG
light 2: B1 light 1 with R1D, D37R, K41D, K122E, R130S
Max killing %: 84.8%
X… HeLa EC50: 0.0341 nM

B5: GOMP001_bsAb_043 (bispecific antibody, human IgG1, kappa, L234A L235A)
heavy 1: B1 heavy 1
light 1: B1 light 1
heavy 2: B1 heavy 2 with P59T, Y82F, W106Y
light 2: B1 light 2 with I20T, L37Q, R39K, A50T, Q107K
Max killing %: 76.2%
X… HeLa EC50: 0.102 nM

More lines, main results first:

X… HeLa EC50: 0.0264 nM
B2: GOMP001_bsAb_046 (bispecific antibody, human IgG1, kappa, L234A L235A)
heavy 1: EVQLVESGGGLVQPGRSLRLSCATSGFTFADYTMHWVRKAPGKGLEWVSGISWNSGSIDYADEVKGRFTISRDNAKKSLYLQMNSLRAEDTALYFCAKDSSGYGHYYFYYLDVWGKGTTVTVSSASTKGPSVFPLAPSSKSTSGGTAALGCLVADYFPEPVTVSWNSGALTSGVHTFPAVLQSSGLYSLSSVVTVPSSSLGTQTYICNVNHKPSNTKVDEKVEPKSCDKTHTCPPCPAPEAAGGPSVFLFPPKPKDTLMISRTPEVTCVVVDVSHEDPEVKFNWYVDGVEVHNAKTKPREEQYNSTYRVVSVLTVLHQDWLNGKEYKCKVSNKALPAPIEKTISKAKGQPREPQVYTLPPSREEMTDNQVSLTCLVKGFYPSDIAVEWESNGQPENNYKTTPPVLMSDGSFFLASKLTVDKSRWQQGNVFSCSVMHEALHNHYTQKSLSLSPG
light 1: not shown
heavy 2: B3 heavy 2
light 2: B1 light 1 with R1D, D37R, K41D, K122E, R130S
Max killing %: 92.6%

X… HeLa EC50: 0.0201 nM
B4: GOMP001_bsAb_044 (bispecific antibody, human IgG1, kappa, L234A L235A)
heavy 1: B3 heavy 1 with P59T, Y82F, W106Y
light 1: B1 light 2 with D1R, I20T, L37Q, R38D, R39K, D42K, A50T, Q107K, E123K, S131R
heavy 2: B3 heavy 2
light 2: B1 light 1 with R1D, D37R, K41D, K122E, R130S
Max killing %: 84.1%

X… HeLa EC50: 0.179 nM
B6: GOMP001_bsAb_045 (bispecific antibody, human IgG1, kappa, L234A L235A)
heavy 1: B1 heavy 1
light 1: B1 light 1
heavy 2: EVQLVESGGGLVQPGRSLRLSCATSGFTFADYTMHWVRYAPGKGLEWVSGISWNSGSIDYADRVKGRFTISRDNAKKSLYLQMNSLRAEDTALYFCAKDSSGYGHYYFYYLDVWGRGTTVTVSSASTKGPSVFPLAPSSKSTSGGTAALGCLVKDYFPEPVTVSWNSGALTSGVHTFPAVLQSSGLYSLSSVVTVPSSSLGTQTYICNVNHKPSNTKVDKKVEPKSCDKTHTCPPCPAPEAAGGPSVFLFPPKPKDTLMISRTPEVTCVVVDVSHEDPEVKFNWYVDGVEVHNAKTKPREEQYNSTYRVVSVLTVLHQDWLNGKEYKCKVSNKALPAPIEKTISKAKGQPRRPRVYTLPPSREEMTKNQVSLVCLVKGFYPSDIAVEWESNGQPENNYKTTPPVLDSDGSFFLYSVLTVDKSRWQQGNVFSCSVMHEALHNHYTQKSLSLSPG
light 2: not shown
Max killing %: 69.5%
